{"source": "paper doi:10.1101/2022.02.07.479471", "about": "(bioRxiv, 2022)", "binders": {"B1": {"name": "SARS-CoV-2 nsp9 with native N-terminus (natural protein)", "chain": "NNELSPVALRQMSCAAGTTQTACTDDNALAYYNTTKGGRFVLALLSDLQDLKWARFPKSDGTGTIYTELEPPCRFVTDTPKGPKVKYLYFIKGLNNLNRGMVLGSLAATVRLQ"}}, "target": "SARS-CoV-2 nsp12 (RNA-dependent RNA polymerase with N-terminal NiRAN domain) (SARS-CoV-2, UniProt P0DTD1)", "test": "cryo-EM structure", "data": [{"binder": "B1", "values": [{"measurement": "binding result", "value": "binds"}]}]}
